First the molecules themselves.
B1: …(N-Me-D) (peptide)
peptide: Ac-EDDSDVWWGGADT[NMeD]-NH2
SMILES: CC(=O)N[C@@H](CCC(=O)O)C(=O)N[C@@H](CC(=O)O)C(=O)N[C@@H](CC(=O)O)C(=O)N[C@@H](CO)C(=O)N[C@@H](CC(=O)O)C(=O)N[C@H](C(=O)N[C@@H](Cc1c[nH]c2ccccc12)C(=O)N[C@@H](Cc1c[nH]c2ccccc12)C(=O)NCC(=O)NCC(=O)N[C@@H](C)C(=O)N[C@@H](CC(=O)O)C(=O)N[C@H](C(=O)N(C)[C@@H](CC(=O)O)C(N)=O)[C@@H](C)O)C(C)C
B2: e… (peptide)
peptide: Ac-[dE]TEFIAWGPTGDED-NH2
SMILES: CC[C@H](C)[C@H](NC(=O)[C@H](Cc1ccccc1)NC(=O)[C@H](CCC(=O)O)NC(=O)[C@@H](NC(=O)[C@@H](CCC(=O)O)NC(C)=O)[C@@H](C)O)C(=O)N[C@@H](C)C(=O)N[C@@H](Cc1c[nH]c2ccccc12)C(=O)NCC(=O)N1CCC[C@H]1C(=O)N[C@H](C(=O)NCC(=O)N[C@@H](CC(=O)O)C(=O)N[C@@H](CCC(=O)O)C(=O)N[C@@H](CC(=O)O)C(N)=O)[C@@H](C)O
B3: E(N-Me-T)… (peptide)
peptide: Ac-E[NMeT]EFIAWGPTGDED-NH2
SMILES: CC[C@H](C)[C@H](NC(=O)[C@H](Cc1ccccc1)NC(=O)[C@H](CCC(=O)O)NC(=O)[C@H]([C@@H](C)O)N(C)C(=O)[C@H](CCC(=O)O)NC(C)=O)C(=O)N[C@@H](C)C(=O)N[C@@H](Cc1c[nH]c2ccccc12)C(=O)NCC(=O)N1CCC[C@H]1C(=O)N[C@H](C(=O)NCC(=O)N[C@@H](CC(=O)O)C(=O)N[C@@H](CCC(=O)O)C(=O)N[C@@H](CC(=O)O)C(N)=O)[C@@H](C)O
B4: ET(N-Me-E)… (peptide)
peptide: Ac-ET[NMeE]FIAWGPTGDED-NH2
SMILES: CC[C@H](C)[C@H](NC(=O)[C@H](Cc1ccccc1)NC(=O)[C@H](CCC(=O)O)N(C)C(=O)[C@@H](NC(=O)[C@H](CCC(=O)O)NC(C)=O)[C@@H](C)O)C(=O)N[C@@H](C)C(=O)N[C@@H](Cc1c[nH]c2ccccc12)C(=O)NCC(=O)N1CCC[C@H]1C(=O)N[C@H](C(=O)NCC(=O)N[C@@H](CC(=O)O)C(=O)N[C@@H](CCC(=O)O)C(=O)N[C@@H](CC(=O)O)C(N)=O)[C@@H](C)O
B5: ETEF(N-Me-I)… (peptide)
peptide: Ac-ETEF[NMeI]AWGPTGDED-NH2
SMILES: CC[C@H](C)[C@@H](C(=O)N[C@@H](C)C(=O)N[C@@H](Cc1c[nH]c2ccccc12)C(=O)NCC(=O)N1CCC[C@H]1C(=O)N[C@H](C(=O)NCC(=O)N[C@@H](CC(=O)O)C(=O)N[C@@H](CCC(=O)O)C(=O)N[C@@H](CC(=O)O)C(N)=O)[C@@H](C)O)N(C)C(=O)[C@H](Cc1ccccc1)NC(=O)[C@H](CCC(=O)O)NC(=O)[C@@H](NC(=O)[C@H](CCC(=O)O)NC(C)=O)[C@@H](C)O
B6: …(N-Me-T)D (peptide)
peptide: Ac-EDDSDVWWGGAD[NMeT]D-NH2
SMILES: CC(=O)N[C@@H](CCC(=O)O)C(=O)N[C@@H](CC(=O)O)C(=O)N[C@@H](CC(=O)O)C(=O)N[C@@H](CO)C(=O)N[C@@H](CC(=O)O)C(=O)N[C@H](C(=O)N[C@@H](Cc1c[nH]c2ccccc12)C(=O)N[C@@H](Cc1c[nH]c2ccccc12)C(=O)NCC(=O)NCC(=O)N[C@@H](C)C(=O)N[C@@H](CC(=O)O)C(=O)N(C)[C@H](C(=O)N[C@@H](CC(=O)O)C(N)=O)[C@@H](C)O)C(C)C
B7: …(N-Me-D)TD (peptide)
peptide: Ac-EDDSDVWWGGA[NMeD]TD-NH2
SMILES: CC(=O)N[C@@H](CCC(=O)O)C(=O)N[C@@H](CC(=O)O)C(=O)N[C@@H](CC(=O)O)C(=O)N[C@@H](CO)C(=O)N[C@@H](CC(=O)O)C(=O)N[C@H](C(=O)N[C@@H](Cc1c[nH]c2ccccc12)C(=O)N[C@@H](Cc1c[nH]c2ccccc12)C(=O)NCC(=O)NCC(=O)N[C@@H](C)C(=O)N(C)[C@@H](CC(=O)O)C(=O)N[C@H](C(=O)N[C@@H](CC(=O)O)C(N)=O)[C@@H](C)O)C(C)C
B8: …aDED (peptide)
peptide: Ac-ETEFIAWGPT[dA]DED-NH2
SMILES: CC[C@H](C)[C@H](NC(=O)[C@H](Cc1ccccc1)NC(=O)[C@H](CCC(=O)O)NC(=O)[C@@H](NC(=O)[C@H](CCC(=O)O)NC(C)=O)[C@@H](C)O)C(=O)N[C@@H](C)C(=O)N[C@@H](Cc1c[nH]c2ccccc12)C(=O)NCC(=O)N1CCC[C@H]1C(=O)N[C@H](C(=O)N[C@H](C)C(=O)N[C@@H](CC(=O)O)C(=O)N[C@@H](CCC(=O)O)C(=O)N[C@@H](CC(=O)O)C(N)=O)[C@@H](C)O
B9: (N-Me-E)… (peptide)
peptide: Ac-[NMeE]TEFIAWGPTGDED-NH2
SMILES: CC[C@H](C)[C@H](NC(=O)[C@H](Cc1ccccc1)NC(=O)[C@H](CCC(=O)O)NC(=O)[C@@H](NC(=O)[C@H](CCC(=O)O)N(C)C(C)=O)[C@@H](C)O)C(=O)N[C@@H](C)C(=O)N[C@@H](Cc1c[nH]c2ccccc12)C(=O)NCC(=O)N1CCC[C@H]1C(=O)N[C@H](C(=O)NCC(=O)N[C@@H](CC(=O)O)C(=O)N[C@@H](CCC(=O)O)C(=O)N[C@@H](CC(=O)O)C(N)=O)[C@@H](C)O
B10: ETE(N-Me-F)… (peptide)
peptide: Ac-ETE[NMeF]IAWGPTGDED-NH2
SMILES: CC[C@H](C)[C@H](NC(=O)[C@H](Cc1ccccc1)N(C)C(=O)[C@H](CCC(=O)O)NC(=O)[C@@H](NC(=O)[C@H](CCC(=O)O)NC(C)=O)[C@@H](C)O)C(=O)N[C@@H](C)C(=O)N[C@@H](Cc1c[nH]c2ccccc12)C(=O)NCC(=O)N1CCC[C@H]1C(=O)N[C@H](C(=O)NCC(=O)N[C@@H](CC(=O)O)C(=O)N[C@@H](CCC(=O)O)C(=O)N[C@@H](CC(=O)O)C(N)=O)[C@@H](C)O
B11: peptide 38 (Ac-ETEFIAWG(N-Me-G)TGDED-NH2) (peptide)
peptide: Ac-ETEFIAWG[Sar]TGDED-NH2
SMILES: CC[C@H](C)[C@H](NC(=O)[C@H](Cc1ccccc1)NC(=O)[C@H](CCC(=O)O)NC(=O)[C@@H](NC(=O)[C@H](CCC(=O)O)NC(C)=O)[C@@H](C)O)C(=O)N[C@@H](C)C(=O)N[C@@H](Cc1c[nH]c2ccccc12)C(=O)NCC(=O)N(C)CC(=O)N[C@H](C(=O)NCC(=O)N[C@@H](CC(=O)O)C(=O)N[C@@H](CCC(=O)O)C(=O)N[C@@H](CC(=O)O)C(N)=O)[C@@H](C)O
B12: ETEFIA(N-Me-W)GPTGDED (peptide)
peptide: Ac-ETEFIA[NMeW]GPTGDED-NH2
SMILES: CC[C@H](C)[C@H](NC(=O)[C@H](Cc1ccccc1)NC(=O)[C@H](CCC(=O)O)NC(=O)[C@@H](NC(=O)[C@H](CCC(=O)O)NC(C)=O)[C@@H](C)O)C(=O)N[C@@H](C)C(=O)N(C)[C@@H](Cc1c[nH]c2ccccc12)C(=O)NCC(=O)N1CCC[C@H]1C(=O)N[C@H](C(=O)NCC(=O)N[C@@H](CC(=O)O)C(=O)N[C@@H](CCC(=O)O)C(=O)N[C@@H](CC(=O)O)C(N)=O)[C@@H](C)O

Non-standard residues stand in square brackets, D forms with d. NMeW = CN[C@@H](Cc1c[nH]c2ccccc12)C(=O)O; NMeF = CN[C@@H](Cc1ccccc1)C(=O)O; NMeI = CC[C@H](C)[C@H](NC)C(=O)O; NMeT = CN[C@H](C(=O)O)[C@@H](C)O; NMeE = CN[C@@H](CCC(=O)O)C(=O)O; NMeD = CN[C@@H](CC(=O)O)C(=O)O; Sar = CNCC(=O)O

Sushi domains (SD1/2) protein of the GABAB1a (GB1a) subunit, recombinant, sequence (Q9Z0U4 29-158): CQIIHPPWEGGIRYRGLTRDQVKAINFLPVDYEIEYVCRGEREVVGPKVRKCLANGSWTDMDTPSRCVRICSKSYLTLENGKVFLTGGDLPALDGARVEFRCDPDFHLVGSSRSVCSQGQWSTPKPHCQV

This experiment concerns the target Sushi domains (SD1/2) protein of the GABAB1a (GB1a) subunit, recombinant. The experiment can be described thus: FP competition.
In the case of Ac-ATEFIAWGPTGDED-NH2, the Ki came out at 53 nM.
To B1 belongs 565 nM; to Ac-ETEFIAWGATGDED-NH2, 291 nM.
As for Ac-ETEFIAWGPTGAED-NH2, the figure is 50 nM; as for Ac-ETEFIAW[dA]PTGDED-NH2 [ETEFIAWaPTGDED], 5400 nM.
Regarding B2, the Ki was 46 nM.
To B3 belongs 37 nM; to Ac-ETEFIAWAPTGDED-NH2, 196 nM; to Ac-ETEFIAWGPTGDE[dD]-NH2 […d], 39 nM.
Consider Ac-ETAFIAWGPTGDED-NH2, for which the Ki turned out to be 49 nM.
To Ac-ETEAIAWGPTGDED-NH2 belongs 688 nM; to Ac-ETEFIAWGPTGDAD-NH2, 38 nM.
As for Ac-EAEFIAWGPTGDED-NH2, the figure is 34 nM.
With Ac-ETEFIAWGPAGDED-NH2, the Ki is 89 nM.
Turning to Ac-ETEFIAWGPTADED-NH2, the Ki was 20 nM.
To Ac-E[dT]EFIAWGPTGDED-NH2 [Et…] belongs 56 nM; to Ac-ETEFIAWGPTGD[dE]D-NH2 […eD], 44 nM; to B4, 159 nM.
As for Ac-ET[dE]FIAWGPTGDED-NH2 [ETe…], the figure is 178 nM; as for Ac-ETEFIAWGPTGDEA-NH2, 44 nM.
To B5 belongs 33 nM; to Ac-ETEFIAWG[dP]TGDED-NH2 [ETEFIAWGpTGDED], 352 nM; to B6, 503 nM.
Consider B7, for which the Ki was determined as 403 nM.
For the molecule Ac-ETEFIAWGPTG[dD]ED-NH2 […dED], the Ki turned out to be 29 nM.
To B8 belongs 54 nM; to Ac-ETE[dF]IAWGPTGDED-NH2 [ETEf…], 930 nM; to B9, 35 nM.
To B10 belongs 252 nM.
As for B11, the Ki came out at 32 nM.
To B12 belongs 46 nM.

For orientation: Ki means the dissociation constant of the complex between target and ligand, obtained from inhibition or displacement.

The record behind these values is US20260193293A1, “PEPTIDES CAPABLE OF INHIBITING PROTEIN-PROTEIN INTERACTIONS AT GABAB1A SUBUNIT AND USES THEREOF” (UNIVERSITY OF COPENHAGEN, priority 2022, published 2026).
